Results on eleven substances are retold here after paper PMC5333794.

For experiment [1], the target named is gp120 (bead-conjugated). In words: Fc Array (multiplexed bead assay, anti-huIgG-PE detection). Conditions: variants incubated with gp120-coated microspheres at equal concentrations; read off a plot.
Experiment [2] concerns the target tetrameric FcγRIII detection reagent (UniProt P08637). In words: Fc Array (multiplexed bead assay, tetrameric FcγRIII detection). Particulars: variants incubated with gp120-coated microspheres at equal concentrations; read off a plot.
UniProt P08637, sequence (P08637 17-254): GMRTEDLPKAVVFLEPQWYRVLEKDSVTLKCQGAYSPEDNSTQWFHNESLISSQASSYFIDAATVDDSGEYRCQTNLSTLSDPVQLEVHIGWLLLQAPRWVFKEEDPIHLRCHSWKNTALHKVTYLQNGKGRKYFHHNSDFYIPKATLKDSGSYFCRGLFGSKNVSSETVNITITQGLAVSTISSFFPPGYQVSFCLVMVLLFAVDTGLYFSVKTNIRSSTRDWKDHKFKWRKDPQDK

For b12 D270E, the figures for the response in experiment [1] and in experiment [2] were 14000 MFI and 110 MFI, respectively.

With b12 G236A, the response in experiment [1] is 14000 MFI; in experiment [2], 59 MFI.

On to b12 I332E, for which the response in experiment [1] worked out at 13000 MFI; in experiment [2] it was 320 MFI.

Regarding b12 IE/SD, the results for the response in experiment [1] and in experiment [2] were 14000 MFI and 2000 MFI, respectively.

As for b12 IE/SD/GA, the values for the response in experiment [1] and in experiment [2] were 13000 MFI and 1100 MFI, respectively.

For the substance b12 K338A, the response in experiment [1] amounted to 13000 MFI; in experiment [2], 110 MFI.

For the substance b12 R292A, the figures for the response in experiment [1] and in experiment [2] were 13000 MFI and 140 MFI, respectively.

Regarding b12 S239A, the response in experiment [1] was 13000 MFI; in experiment [2] it was 110 MFI.

Regarding b12 S267G, the response in experiment [1] came to 14000 MFI; in experiment [2] it was 80 MFI.

In the case of b12 S298A, the response in experiment [1] turned out to be 14000 MFI; in experiment [2] it was 96 MFI.

For the substance b12 SD/IE/AL, the results for the response in experiment [1] and in experiment [2] were 13000 MFI and 2800 MFI, respectively.
